{"source": "patent US20210106652A1", "about": "“Immunogenic Compounds For Treatment Of Fibrosis, Autoimmune Diseases And Inflammation” (ENTEROME S.A., priority 2018, published 2021)", "key": {"HHD DR3 mice": {"tested_on": "HHD DR3 mice", "assay": "IFN-γ ELISpot immunogenicity and cross-reactivity in HHD DR3 (HLA-A2 transgenic) mice", "type": "in vivo, mouse", "settings": "100 μg s.c. d0, d14 with helper peptide (DR3) and IFA; challenge with either IL13RA2-L or IL13RA2-H", "procedure": "The (poly)peptide of the present invention IL13RA2-L (SEQ ID NO: 279) and the corresponding human reference peptide IL13RA2-H (SEQ ID NO: 263) were tested in distinct groups of male and female HHD DR3 mice expressing human HLA-A2 and HLA-DR3 MHC and lacking the murine H-2 class I and class II MHCs. Groups of 5 mice (male and female) were subcutaneously injected on days 0 and 14 with 100 μg of IL13RA2-L (SEQ ID NO: 279) or IL13RA2-H (SEQ ID NO: 263), 150 μg of helper peptide (DR3) and IFA. On day 21, the mice were euthanized and splenocytes were prepared and stimulated in vitro with IL13RA2-L or the human corresponding peptide IL13RA2-H to assess their capacity to secrete IFN- as assessed by ELISpot. Concanavalin A (ConA) was used as a positive control."}, "HLA-A*0201": {"target": "T1, HLA-A*0201 (Homo sapiens, UniProt P04439, D140Y/D185E/D98H/E176V/E277Q/G131W/G231S/I119V/I121R/I166T/I218V/L300P/L318F/N151K/N90K/P208A/P217A/Q86G/Q94H/R138H/R169H/T345S)", "T1 construct": "human tumoral cell T2 which expresses the HLA-A*0201 molecule; endogenous in cells; host or cells: T2 cells (human, TAP1/2 negative)", "assay": "Affinity of the peptide to HLA-A*0201 on T2 cell line (FACS, anti-HLA-A2)", "type": "binding", "settings": "for binding to HLA-A*0201 (in words): T2 cells; for Concentration of peptide that induces 20% of HLA-A2 expression: Example 7; for In vitro binding affinity: Example 5, relative affinity = concentration of peptide inducing 20% of HLA-A*0201 expression / that of reference peptide HIV pol 589-597, lower = higher affinity", "text": "The experimental protocol is similar to the one that was validated for peptides presented by the HLA-A*0201 (Tourdot et al., A general strategy to enhance immunogenicity of low-affinity HLA-A2.1-associated peptides: implication in the identification of cryptic tumor epitopes. Eur J Immunol. 2000 December; 30(12):3411-21). Affinity measurement of the peptides is achieved with the human tumoral cell T2 which expresses the HLA-A*0201 molecule, but which is TAP1/2 negative and incapable of presenting endogenous peptides.\n(§1) T2 cells (2.10^5 cells per well) are incubated with decreasing concentrations of peptides from 100 μM to 0.1 μM in a AIMV medium supplemented with 100 ng/μl of human β2m at 37° C. for 16 hours. Cells are then washed two times and marked with the anti-HLA-A2 antibody coupled to PE (clone BB7.2, BD Pharmagen).\nThe analysis is achieved by FACS (Guava Easy Cyte).\n(§2) For each peptide concentration, the geometric mean of the labelling associated with the peptide of interest is substracted from background noise and reported as a percentage of the geometric mean of the […] labelling obtained for the reference peptide HIV pol 589-597 at a concentration of 100 μM. The relative affinity is then determined as follows:\nrelative affinity=concentration of each peptide inducing 20% of expression of HLA-A*0201/concentration of the reference peptide inducing 20% of expression of HLA-A*0201.\nThe experimental protocol was similar to the one that was validated for peptides presented by the HLA-A*0201 (Tourdot et al., A general strategy to enhance immunogenicity of low-affinity HLA-A2.1-associated peptides: implication in the identification of cryptic tumor epitopes. Eur J Immunol. 2000 December; 30(12):3411-21).\nas §1, with “were” for “are”\nThe analysis was achieved by FACS (Guava Easy Cyte).\nas §2, with “was subtracted” for “is substracted”\nThe experimental protocol, materials and methods correspond to those outlined in Example 3, with the only difference that the above mentioned (poly)peptides were used.\nThe experimental protocol, materials and methods correspond to those outlined in Example 2, with the only difference that the above mentioned (poly)peptides were used."}, "[1]": {"target": "T2, HLA-A*0201 molecule expressed on human T2 cells (human)", "T2 construct": "MHC class I molecule on T2 cells; also called HLA-A2", "assay": "T2 cell assay; relative affinity against reference peptide HIV pol 589-597"}}}
{"molecule": "WLPFGFILI [IL13RA2-H]", "values": [{"measurement": "immune response (IFN-γ ELISpot, spot forming cells) after immunisation", "setting": "HHD DR3 mice", "value": "does not induce an immune response"}, {"measurement": "binding to HLA-A*0201 (in words)", "setting": "HLA-A*0201", "value": "do not bind to or show much lower affinity"}]}
{"molecule": "FLPFGFILV [IL13RA2-B]", "values": [{"measurement": "Concentration of peptide that induces 20% of HLA-A2 expression", "setting": "HLA-A*0201", "value": 2.9, "unit": "µM"}, {"measurement": "binding to HLA-A*0201 (in words)", "setting": "HLA-A*0201", "value": "bind strongly"}]}
{"molecule": "FLPFGFILPV [IL13RA2-L]", "values": [{"measurement": "immune response (IFN-γ ELISpot, spot forming cells) after immunisation", "setting": "HHD DR3 mice", "value": "strongly immunogenic"}, {"measurement": "Concentration of peptide that induces 20% of HLA-A2 expression", "setting": "HLA-A*0201", "value": 3.2, "unit": "µM"}]}
{"molecule": "ALPFGFILV [1A9V]", "values": [{"measurement": "In vitro binding affinity", "setting": "HLA-A*0201", "value": 3.06}, {"measurement": "Concentration of peptide that induces 20% of HLA-A2 expression", "setting": "HLA-A*0201", "value": 36.5, "unit": "µM"}]}
{"molecule": "1I9A: tryptophan at position 1 of SEQ ID No 263 substituted by isoleucine and isoleucine at position 9 substituted by alanine (ILPFGFILA)", "values": [{"measurement": "In vitro binding affinity", "setting": "HLA-A*0201", "value": 2.22}]}
{"molecule": "CLYTFLIST [IL13RA2-H2]", "values": [{"measurement": "binding to HLA-A*0201 (in words)", "setting": "HLA-A*0201", "value": "do not bind to or show much lower affinity"}]}
{"molecule": "1F9M: tryptophan at position 1 of SEQ ID No 263 substituted by phenylalanine and isoleucine at position 9 substituted by methionine (FLPFGFILM)", "values": [{"measurement": "In vitro binding affinity", "setting": "HLA-A*0201", "value": 2.62}]}
{"molecule": "YLYTFLIST [IL13RA2-B2]", "values": [{"measurement": "binding to HLA-A*0201 (in words)", "setting": "HLA-A*0201", "value": "bind strongly"}]}
{"molecule": "FLPFGFILV (also called IL13RA2-B pAg; candidate peptide)", "note": "[IL13RA2-B (FLPFGFILV, SEQ ID NO: 31)]", "values": [{"measurement": "In vitro binding affinity", "setting": "[1]", "value": 0.3}]}
{"molecule": "ALPFGFILV (Analogue described by Eguchi et al. 2006; also called comparative peptide 1A9V)", "note": "[peptide 1A9V (SEQ ID NO: 263 with tryptophan 1 to alanine and isoleucine 9 to valine)]", "values": [{"measurement": "In vitro binding affinity", "setting": "[1]", "value": 3.6}]}
{"molecule": "FLPFGFILPV (also called IL13R2A-L)", "note": "[IL13RA2-L (SEQ ID NO: 279)]", "values": [{"measurement": "In vitro binding affinity", "setting": "[1]", "value": 0.3}]}
